For one assay, the target named is T1, MMP2 (Homo sapiens, UniProt P08253).
T1 sequence (P08253 110-660): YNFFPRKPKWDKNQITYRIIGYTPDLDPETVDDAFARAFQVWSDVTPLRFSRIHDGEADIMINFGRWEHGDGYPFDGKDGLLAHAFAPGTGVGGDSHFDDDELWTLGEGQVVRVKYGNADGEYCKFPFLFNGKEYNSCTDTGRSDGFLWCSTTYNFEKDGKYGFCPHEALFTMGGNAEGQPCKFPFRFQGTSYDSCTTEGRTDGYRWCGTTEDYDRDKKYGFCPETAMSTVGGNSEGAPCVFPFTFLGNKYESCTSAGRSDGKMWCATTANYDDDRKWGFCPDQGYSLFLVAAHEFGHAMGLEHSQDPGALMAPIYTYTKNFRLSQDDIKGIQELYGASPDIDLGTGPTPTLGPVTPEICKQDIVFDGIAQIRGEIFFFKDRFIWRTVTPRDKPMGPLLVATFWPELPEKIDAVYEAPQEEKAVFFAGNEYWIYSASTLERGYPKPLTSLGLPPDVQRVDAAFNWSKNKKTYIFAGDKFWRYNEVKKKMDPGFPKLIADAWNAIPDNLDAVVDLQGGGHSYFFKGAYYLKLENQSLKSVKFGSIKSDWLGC
Description: Enzymatic digestion test, MMP2. Format: biochemical. To be noted: 3 ug peptide, MMP2 100, 200, 800 ng, 37° C. 4 hours. The method, then: (§1) 3 ug of synthesized mdhFas-1-MMPsubstrate structure modified protein, together with MMP1 (5 ng, 10 ng and 50 ng), MMP2 (100 ng, 200 ng and 800 ng), MMP3 (10 ng, 50 ng and 100 ng), cathepsin D (5 ng, 10 ng and 50 ng), cathepsin L (100 ng, 200 ng and 800 ng), and cathepsin K (10 ng, 50 ng and 100 ng), was mixed with enzyme buffer (150 mM NaCl, 5 mM. CaCl2, 20 mM Tris-HCl pH7.5), and reacted at 37° C. for 4 hours. The resultant product was subjected to electrophoresis through 15% polyacrylamide gel, transferred to a Nitrocellulose Membrane (Schleicher & Schuell), blocked at room temperature for 1 hour with TBST solution containing 3% BSA (20 mmole/L Tris-HCl, 137 mmole//l NaCl, 0.1% Tween-20), washed TBST solution three times (each for 10 minutes), and reacted with primary antibody (anti-Histidine or anti-Bigh3) for 1 hour. The resultant product was washed with TBST solution three times (each for 10 minutes), reacted with a secondary antibody conjugated to horseradish peroxidase (HRP) for 1 hour, washed TBST solution three times (each for 10 minutes), and visualized by ECL (Amersham Biosciences, UK) so as to detect the change in the amount of mdhFas-1-MMPsubstrate-RGD structural peptide.

The next assay addresses cathepsin D (Homo sapiens, UniProt P07339). The experiment in a line: Enzymatic digestion test, cathepsin D. Format: biochemical. The note with it: 3 ug peptide, cathepsin D 5, 10, 50 ng, 37° C. 4 hours. The method, then: as §1
In assay [1] the test system is mouse fibroblast (NIH3T3). Description: βig-h3-mediated cell adhesion test, NIH3T3. Format: cell-based. The note with it: for βig-h3-mediated cell adhesion: NIH3T3, βig-h3 5 ug/ml coat. The method, then: (§2) Human βig-h3 was introduced into a 96-well plate at a concentration of 5 ug/ml, and coated for 14 hours at 4° C. In DMEM+0.5% BSA (Bovine Serum Albumin) culture medium, human fibroblast (NIH3T3) was introduced, and hsdhFas-1 peptide at concentrations was injected thereto, followed by mixing. The resultant mixture was cultured at 37° C. for 30 minutes, and plated on a coated well. It was cultured for 2 hours, and washed with PBS (phosphate buffered saline) so as to remove unattached cells, and then added with a substrate (4-Nitrophenyl N-acetyl-β-D-glucosaminide, Sigma, U.S.) to be activated by β-N-acetylglucosaminidase within the cell, followed by culturing at 37° C. for 1 hour. Then, a glycine EDTA solution (0.5M EDTA, 50 mM glycine, pH 10.4) was added thereto, and the coloring extent according to the number of attached cells was measured by absorbance.
Also, a structurally modified peptide of a fas-1 domain of mouse βig-h3 was synthesized as a recombinant peptide (hereinafter, referred to as ‘mdhFas-1peptide’, see FIG. 2), and a mouse cell line, that is, NIH3T3 cell line, was used to test the inhibiting effect by mdhFas-1 peptide on adhesion and migration of a Synovial membrane cell in the same manner as that in the test using human βig-h3.
as §2, with “βig-h3” for “Human βig-h3”, “mouse” for “human”, “MFK23, MFK24, MFK25 or MFK27” for “hsdhFas-1 peptide”

The target in the next assay is MMP3 (Homo sapiens, UniProt P08254). The experiment in a line: Enzymatic digestion test, MMP3. The note with it: 3 ug peptide, MMP3 10, 50, 100 ng, 37° C. 4 hours. It is filed as biochemical. The method, then:
as §1

The next assay addresses T2, cathepsin K (Homo sapiens, UniProt P43235).
T2 sequence (P43235 115-329): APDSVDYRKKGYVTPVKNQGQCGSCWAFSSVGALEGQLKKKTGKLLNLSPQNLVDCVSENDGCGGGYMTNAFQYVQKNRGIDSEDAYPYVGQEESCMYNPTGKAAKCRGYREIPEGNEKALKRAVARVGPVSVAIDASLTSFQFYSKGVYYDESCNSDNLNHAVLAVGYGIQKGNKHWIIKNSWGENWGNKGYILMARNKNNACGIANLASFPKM
Description: Enzymatic digestion test, cathepsin K. Format: biochemical. The note with it: 3 ug peptide, cathepsin K 10, 50, 100 ng, 37° C. 4 hours. The method, then: as §1

Entries after “also recorded” stand apart in the source; their conditions may differ.

Sequence of MMP3 (P08254 100-477, species assumed): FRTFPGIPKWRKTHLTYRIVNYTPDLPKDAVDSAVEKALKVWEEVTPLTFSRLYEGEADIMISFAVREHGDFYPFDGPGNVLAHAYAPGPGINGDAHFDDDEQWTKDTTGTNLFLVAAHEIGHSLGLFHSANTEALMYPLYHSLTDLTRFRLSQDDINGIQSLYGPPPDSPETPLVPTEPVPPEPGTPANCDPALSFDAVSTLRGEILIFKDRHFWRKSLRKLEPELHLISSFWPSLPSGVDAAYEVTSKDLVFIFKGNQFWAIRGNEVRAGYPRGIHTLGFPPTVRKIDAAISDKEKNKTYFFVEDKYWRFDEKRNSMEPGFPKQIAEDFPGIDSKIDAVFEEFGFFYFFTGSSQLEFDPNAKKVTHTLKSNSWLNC
Sequence of cathepsin D (P07339 65-412, species assumed): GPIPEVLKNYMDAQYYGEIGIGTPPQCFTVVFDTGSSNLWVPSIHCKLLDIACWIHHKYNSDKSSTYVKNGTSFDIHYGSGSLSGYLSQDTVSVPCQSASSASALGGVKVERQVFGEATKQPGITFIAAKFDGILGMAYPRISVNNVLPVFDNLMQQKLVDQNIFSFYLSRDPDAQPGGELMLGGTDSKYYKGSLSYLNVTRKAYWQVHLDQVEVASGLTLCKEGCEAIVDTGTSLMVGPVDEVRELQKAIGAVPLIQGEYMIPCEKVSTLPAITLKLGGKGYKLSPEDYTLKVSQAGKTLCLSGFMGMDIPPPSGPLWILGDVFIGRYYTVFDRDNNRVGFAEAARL

B1: MFK23: fusion peptide having sequential links of mdhFas-1, MMP2 substrate GPLGVRG (SEQ ID NO: 5), and QERGDSLA (SEQ ID NO: 10) (protein)
chain: QAMPPEELNKLLANAKELTNILKYHIGDEILVSGGIGALVRLKSLQGDKLEVSSKNNVVSVNKEPVAETDIMEFGPLGVRGVDGQERGDSLAGLE
modifications: MFK23
B1: the “cleavage through treatment with MMP-2” value with MMP2 was “concentration-dependently cleaved”. For the same molecule, in the assay with cathepsin D, the “cleavage through treatment with cathepsin D” value is recorded as “not cleaved”. In addition, the “concentration at which treatment inhibited the adhesion” value in assay [1] (NIH3T3, FIG. 14) is at least 5 µM. In assay [1], the βig-h3-mediated cell adhesion result is on record as “even at a very low concentration can inhibit the cell adhesion; also recorded: concentration-dependently inhibited”. Also, in the assay with MMP3, the “cleavage through treatment with MMP-3” value is given as “not cleaved”. Moreover, in the assay with cathepsin K, the “cleavage through treatment with cathepsin K” value was “not cleaved”.

B2: MFK24: fusion peptide having sequential links of mdhFas-1, MMP1 substrate GPQGIAG (SEQ ID NO: 6), and QERGDSLA (SEQ ID NO: 10) (protein)
chain: QAMPPEELNKLLANAKELTNILKYHIGDEILVSGGIGALVRLKSLQGDKLEVSSKNNVVSVNKEPVAETDIMEFGPQGIAGVDGQERGDSLAGLE
modifications: MFK24
Turning to B2, the “cleavage through treatment with MMP-2” value with MMP2 was “not cleaved”. In addition, the “cleavage through treatment with cathepsin D” value with cathepsin D is “not cleaved”. In assay [1] (NIH3T3, concentration of 0.5uM, FIG. 15C), this molecule displayed an adhesion inhibiting effect of at least 80%. Moreover, the βig-h3-mediated cell adhesion result in assay [1] was “even at a very low concentration can inhibit the cell adhesion; also recorded: concentration-dependently inhibited”. Moreover, in the assay with MMP3, the “cleavage through treatment with MMP-3” value is reported as “not cleaved”. Also, the “cleavage through treatment with cathepsin K” value in the assay with cathepsin K is “not cleaved”.

These data come from patent publication US9605038B2, “Fusion peptide comprising dhFas-1 domain and MMP substrate and use thereof for preventing and treating rheumatoid arthritis” (Kyungpook National University Industry-Academic Cooperation …, priority 2010, dated 2017).
